For data set [1] the following is noted: cited from earlier work.
For data set [2], the system named is Ter-cells. In words: Spleen size, splenocytes and splenic Ter-cells by flow cytometry. Type of data set: in vivo, mouse. On the procedure: (§1) Tumor models and treatments. 1×10^6 MC38, LLC, or B16-SIY tumor cells were subcutaneously injected into the flank of mice. On day 10 after tumor inoculation, tumors were either irradiated with one dose of 20 Gy or mice received sham treatment. For anti-PD-L1 treatment experiments, 200 μg anti-PD-L1 (10F.9G2) or isotype control was given by i.p. every three days for a total of four times starting on day 10 after tumor inoculation. For type I IFN blockade experiments, 200 μg anti-IFNAR1 were intratumorally injected on days 0 and 2 after irradiation. For CD4 or CD8 T cell depletion experiments, 200 μg anti-CD4 or anti-CD8 mAb was delivered four times by i.p. injection every 3 days starting 1 day before therapies. Artemin-neutralizing antibody was delivered i.t. at 1 μg/mouse starting on day of irradiation, every 2 days for 7 doses. For Ter-cell depletion, anti-ter119 was injected i.p. at 20 μg/mouse every 2 days for 4 doses. For Ter-cell or artemin treatment groups, mice were administered 1×10^7 purified Ter cells i.v. every other day for a total of three doses, or mice were treated with 0.5 μg/mouse artemin i.t. every other day starting on day 0 of therapies throughout the studies. For EPO treatment groups, mice were treated with 20 U/mouse EPO i.v. every other day throughout the studies, starting on day 0 of the therapies. IFN-γ was administered through intrasplenic injection on day 15 post tumor implantation at 2 μg/mouse for 1 dose. LOXO-292 was administered by oral gavaging at 100 μg/mouse/day throughout the entire studies, starting on day 0 of the therapies. Spleens were harvested on day 20 or at indicated times post-inoculation for analysis of spleen size or splenic cells. Tumor size was monitored and calculated with the formula for area (length×width).
(§2) Flow Cytometry. […] Single cell suspensions were blocked with anti-FcR (2.4G2, BioXcell) and then stained with fluorescence-labeled antibodies. Flow cytometry was performed on BD LSR Fortessa at The University of Chicago core facility and data were analyzed with FlowJo software.

For the next data set, the system named is LLC tumor. In words: Tumor growth of LLC tumor-bearing mice treated with IR or anti-PD-L1 plus test agent. Type of data set: in vivo, mouse. The conditions noted are these: LLC tumor-bearing B6 mice; agent combined with 20 Gy IR or anti-PD-L1. As for the experimental part:
as §1

The subject of a further data set is artemin. In words: Artemin levels in serum (ELISA) and artemin mRNA in spleen (qPCR). The format is in vivo, mouse. The conditions noted are these: LLC tumor-bearing mice treated with IR or anti-PD-L1 plus EPO i.v. As for the experimental part: ELISA. Tumor tissues were homogenized in PBS with protease inhibitor followed by the addition of Triton X-100. Serum was collected on day 20 post-tumor inoculation or at indicated times. The concentration of artemin or TGF-β was measured with artemin ELISA Kit (E03A0032 for mouse and E01A0032 for human, BlueGene Biotechnology), or TGF-β1 Mouse ELISA Kit (BMS608-4, Invitrogen).
Real-time PCR assay. mRNA from tumor cells or splenocytes was isolated using TRIzol according to the manufacturer's instructions (Invitrogen). cDNA was synthesized from pd(N)6-primed mRNA reverse transcription using M-MLV superscript reverse transcriptase. Real-time PCR kits (SYBR Premix Ex Taq™, DRR041A) were purchased from Takara Bio Inc. PCR was performed using a CFX96 (Bio-Rad). mRNA specific for the housekeeping gene GAPDH was measured and used as an internal control. The primers for artemin were 5′-TACTGCATTGTCCCACTGCCTCC-3′ (SEQ ID NO: 1) for the upstream primer (UP) and 5′-TCGCAGGGTTCTTTCGCTGCACA-3′ (SEQ ID NO: 2) for the downstream primer (DP); GAPDH: 5′-AGACCAGCCTGAGCAAAAGA-3′ (SEQ ID NO: 3) for UP and 5′-CTAGGCTGGAGTGCAGTGGT-3′ (SEQ ID NO: 4) for DP.
On the technique in general: ELISA stands for enzyme-linked immunosorbent assay.

Data set [3] deals with Ter-cells. In words: Splenic cells by flow cytometry after intrasplenic IFN-γ injection in LLC-bearing mice. Type of data set: in vivo, mouse. On the procedure: FIG. 27. Apoptosis of splenic Ter-cells as analyzed by flow cytometry at indicated times post-injection. B6 mice were inoculated with LLC on day 0 and recombinant mouse IFN-γ was administered through intrasplenic injection on day 15. Representative data are shown from two or three experiments conducted with 3-5 mice per group. Data are represented as mean±SD. *p<0.05, **p<0.01, and ***p<0.001.
FIG. 28A-28C. Mechanism of IR-induced Ter-cell reduction in spleen. (FIG. 28A) Apoptosis of splenic CD45^+ immune cells, MDSCs, and CD8^+ T cells as analyzed by flow cytometry at indicated time post IFN-γ intrasplenic injection. (FIG. 28B) The percentage of CD8^+ T cells were analyzed by flow cytometry at indicated time post IFN-γ intrasplenic injection. (FIG. 28C) […] expression on splenic Ter-cells on day 3 post IFN-γ intrasplenic injection. Representative data are shown from two or three experiments conducted with 3-5 mice or samples per group. Data are represented as mean±SD. *p<0.05, **p<0.01, and ***p<0.001.
as §1, with “IFN-γ was administered through intrasplenic injection on day 15 post tumor implantation at 2 μg/mouse for 1 dose. LOXO-292 was administered by oral gavaging at 100 μg/mouse/day throughout the entire studies, starting on day 0 of the therapies. Spleens were harvested on day 20 or at indicated times post-inoculation for analysis of spleen size or splenic cells.” left out
as §2

Where [4] appears, read: LLC tumor-bearing mice, intra-splenic injection.

Take “rhEPO: Recombinant human erythropoietin used for the treatment of anemia in cancer patients”: the “Survival benefit in cancer patients treated by RT” value in data set [1] (several clinical trials) is recorded as “detrimental effects”.

Regarding IFN-α, in the data set on Ter-cells [2] (WT mice bearing LLC or B16-SIY tumors, i.t.), the “Ter-cell accumulation in spleen after intra-tumor injection” value was “reduced Ter-cell accumulation”.

For the molecule `CO[C@]1(C(=O)N[C@@H](C)c2ccc(-n3cc(F)cn3)nc2)CC[C@H](c2nc(C)cc(Nc3cc(C)[nH]n3)n2)CC1` [BLU-677], the “Outcomes for patients with RET fusion-positive cancers” value in data set [1] (patients) is on record as “improved outcomes”.

B1: EPO: recombinant erythropoietin (959-ME) from R&D Systems (protein, UniProt P07321 27-192, looked up)
Erythropoietin: APPRLICDSRVLERYILEAKEAENVTMGCAEGPRLSENITVPDTKVNFYAWKRMEVEEQAIEVWQGLSLLSEAILQAQALLANSSQPPETLQLHIDKAISGLRSLTSLLRVLGAQKELMSPPDTTPPAPLRTLTVDTFCKLFRVYANFLRGKLKLYTGEVCRRGDR
With B1, the “Tumor growth: influence on the therapeutic effect of IR and PD-L1 blockade” value with LLC tumor is “inhibited the therapeutic effect of both IR and PD-L1 blockade”. In addition, the “Ter-cell accumulation under IR or PD-L1 blockade” value in the data set on Ter-cells [2] (LLC tumor-bearing mice treated with IR or anti-PD-L1 plus EPO i.v.) was “diminished the effects of IR and PD-L1 blockade”. Moreover, in the data set with Ter-cells [2] (naive B6 mice, i.v. and s.c. routes), the “Spleen size and Ter-cell accumulation in naive mice” value was “increased spleen size and Ter-cell accumulation”. In addition, in the data set on artemin, the “Level of secreted artemin in serum under IR or PD-L1 blockade” value was “diminished the effects of IR and PD-L1 blockade”.

B2: IFN-γ: Recombinant mouse IFN-γ (315-05) from Peprotech, intrasplenic injection (protein, UniProt P01580 23-155, looked up)
Interferon gamma: HGTVIESLESLNNYFNSSGIDVEEKSLFLDIWRNWQKDGDMKILQSQIISFYLRLFEVLKDNQAISNNISVIESHLITTFFSNSKAKKDAFMSIAKFEVNNPQVQRQAFNELIRVVHQLLPESSLRKRKRSRC
As for B2, in the data set with Ter-cells [3] (setting [4]), the “Abundance of CD8+ T cells in spleen” value is reported as “restored the abundance”; the “Apoptosis of immune cells, including MDSCs and CD8+ T cells” value is reported as “did not change apoptosis levels”. In the data set with Ter-cells [3] (LLC tumor-bearing mice, intra-splenic injection, 3 days after treatment), the “Apoptosis of splenic Ter-cells” value is “increased apoptosis of Ter-cells”. Also, the “MHC I expression on Ter-cells” value with Ter-cells [3] (day 3 post intrasplenic injection) is recorded as “enhanced the MHC I expression”.
